Reference: article PMC3977929, “Affinity- and Specificity-Enhancing Mutations Are Frequent in Multispecific Interactions between TIMP2 and MMPs” (PLoS ONE, 2014)
Positions count from the first letter of the chain named. In names and notes the source's numbering stands.

B1: N-TIMP2 WT (N-terminal domain of Tissue Inhibitor of Metalloproteinases 2, residues 1-127) (domain or fragment, human, UniProt P16035 27-153, looked up)
chain: CSCSPVHPQQAFCNADVVIRAKAVSEKEVDSGNDIYGNPIKRIQYEIKQIKMFKGPEKDIEFIYTAPSSAVCGVSLDVGGKKEYLIAGKAEGDGKMHITLCDFIVPWDTLSTTQKKSLNHRYQMGCE
notes: Monomeric fraction used; also called WT N-TIMP2
B2: N-TIMP2 T99Y (domain or fragment, human, UniProt P16035 27-153, looked up)
chain: B1 chain with T99Y
notes: TIMP2, human, N-terminal domain, residues 1-127
B3: N-TIMP2 S4Q (domain or fragment, human, UniProt P16035 27-153, looked up)
chain: B1 chain with S4Q
notes: TIMP2, human, N-terminal domain, residues 1-127; also called S04Q
B4: N-TIMP2 S4E (domain or fragment, human, UniProt P16035 27-153, looked up)
chain: B1 chain with S4E
notes: TIMP2, human, N-terminal domain, residues 1-127; also called S04E
B5: N-TIMP2 I35E (domain or fragment, human, UniProt P16035 27-153, looked up)
chain: B1 chain with I35E
notes: as for B2
B6: N-TIMP2 I35K (domain or fragment, human, UniProt P16035 27-153, looked up)
chain: B1 chain with I35K
notes: as for B2
B7: N-TIMP2 S4A (domain or fragment, human, UniProt P16035 27-153, looked up)
chain: B1 chain with S4A
notes: as for B2
B8: N-TIMP2 S68W (domain or fragment, human, UniProt P16035 27-153, looked up)
chain: B1 chain with S68W
notes: as for B2
B9: N-TIMP2 V71N (domain or fragment, human, UniProt P16035 27-153, looked up)
chain: B1 chain with V71N
notes: as for B2
B10: N-TIMP2 N38Q (domain or fragment, human, UniProt P16035 27-153, looked up)
chain: B1 chain with N38Q
notes: as for B2
B11: N-TIMP2 H97R (domain or fragment, human, UniProt P16035 27-153, looked up)
chain: B1 chain with H97R
notes: as for B2
B12: N-TIMP2 S68Y (domain or fragment, human, UniProt P16035 27-153, looked up)
chain: B1 chain with S68Y
notes: as for B2
B13: N-TIMP2 V6R (domain or fragment, human, UniProt P16035 27-153, looked up)
chain: B1 chain with V6R
notes: TIMP2, human, N-terminal domain, residues 1-127; also called V06R
B14: N-TIMP2 S4R (domain or fragment, human, UniProt P16035 27-153, looked up)
chain: B1 chain with S4R
notes: TIMP2, human, N-terminal domain, residues 1-127; also called S04R

The binders below were run against T1, MMP9 catalytic domain (UniProt P14780 107-444) (assay: enzyme activity (inhibition) assay with a fluorogenic substrate; various concentrations of N-TIMP2 pre-incubated 1 hour with MMP9 (0.2 nM) or MMP14 (0.5 nM) in 50 mM Tris-HCl, 0.15 M NaCl, 10 mM CaCl2, 0.02% Brij 35, pH 7.5, 37°C; fraction of enzyme activity fitted to a 1:1 binding model to give Kd). Conditions: both partners purified.
T1 construct: Matrix Metalloproteinase 9 (MMP9), catalytic domain; source: expressed recombinantly and purified as published before [12]
T1 sequence (P14780 107-444): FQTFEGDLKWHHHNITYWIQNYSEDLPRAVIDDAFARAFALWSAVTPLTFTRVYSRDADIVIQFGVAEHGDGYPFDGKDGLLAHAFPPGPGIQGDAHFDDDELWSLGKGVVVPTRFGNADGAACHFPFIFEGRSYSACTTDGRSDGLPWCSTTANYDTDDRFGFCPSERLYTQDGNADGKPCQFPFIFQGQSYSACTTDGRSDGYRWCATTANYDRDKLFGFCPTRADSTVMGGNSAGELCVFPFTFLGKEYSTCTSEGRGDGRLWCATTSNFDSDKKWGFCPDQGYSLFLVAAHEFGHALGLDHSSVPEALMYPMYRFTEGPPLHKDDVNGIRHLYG

Row | Kd | Binder
1 | 0.9 nM | B1
2 | 1.1 nM | B2
3 | 1.39 nM | B3
4 | 15.5 nM | B4
5 | 2.5 nM | B5
6 | 0.58 nM | B6
7 | 0.85 nM | B7
8 | 0.37 nM | B8
9 | 4.68 nM | B9
10 | 2.4 nM | B10
11 | 0.5 nM | B11
12 | 0.8 nM | B12
13 | 0.5 nM | B13
14 | 0.55 nM | B14

What follows are binders tested against T2, MMP14 catalytic domain (UniProt P50281 112-285) in the same assay as above. Conditions: both partners purified.
T2 construct: Matrix Metalloproteinase 14 (MMP14), catalytic domain; source: expressed recombinantly and purified as published before [12]

Row | Kd | Binder
15 | 4.5 nM | B1
16 | 1.05 nM | B2
17 | 1.9 nM | B3
18 | 9.5 nM | B4
19 | 5.4 nM | B5
20 | 0.38 nM | B6
21 | 1.4 nM | B7
22 | 0.91 nM | B8
23 | 6.5 nM | B9
24 | 3.4 nM | B10
25 | 0.32 nM | B11
26 | 1.1 nM | B12
27 | 1.3 nM | B13
28 | 2.7 nM | B14
